Reference: PMC8961534, “Interaction with the Assembly Chaperone Ump1 Promotes Incorporation of the β7 Subunit into Half-Proteasome Precursor Complexes Driving Their Dimerization” (Biomolecules, 2022)

T1: β7-∆CTE (β7 without C-terminal extension), untagged (S. cerevisiae, UniProt P30657 1-247)
T1 construct: β7/Pre4, S. cerevisiae, C-terminal extension (CTE, the last 19 residues) deleted; propeptide present; source: E. coli, purified
T1 sequence (looked up): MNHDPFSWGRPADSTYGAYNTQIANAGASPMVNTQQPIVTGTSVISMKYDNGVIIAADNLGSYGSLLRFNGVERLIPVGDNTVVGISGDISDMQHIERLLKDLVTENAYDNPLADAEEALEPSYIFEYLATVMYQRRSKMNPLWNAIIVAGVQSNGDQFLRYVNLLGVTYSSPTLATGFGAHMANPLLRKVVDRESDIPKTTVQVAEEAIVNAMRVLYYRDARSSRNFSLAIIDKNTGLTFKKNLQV


Experiments:
[1] = target: ^17–148Ump1-6His (S. cerevisiae) (UniProt P38293); assay: fluorescence microscopy-based on-bead binding assay; Ump1-6His or ^17–148Ump1-6His from E. coli extracts bound to Ni-NTA beads and washed (20 mM imidazole); extracts with mNeonGreen fusion proteins, adjusted by fluorescence, added 1 h, 4 °C; beads imaged, quantified with Fiji (n = 5), empty vector background subtracted
[2] = target: T1, β7-∆CTE (β7 without C-terminal …); assay: pull-down; native extracts of E. coli expressing Ump1-6His incubated with Ni-NTA resin, washed, then incubated with purified untagged β7 versions; elution with imidazole, anti-β7 and anti-Ump1 Western blotting, LI-COR quantification (n = 3); settings: both partners purified

full-length β7 (^1–266β7) fused to mNeonGreen and 2HA, sequence (P30657 whole entry, the tested form may be a part): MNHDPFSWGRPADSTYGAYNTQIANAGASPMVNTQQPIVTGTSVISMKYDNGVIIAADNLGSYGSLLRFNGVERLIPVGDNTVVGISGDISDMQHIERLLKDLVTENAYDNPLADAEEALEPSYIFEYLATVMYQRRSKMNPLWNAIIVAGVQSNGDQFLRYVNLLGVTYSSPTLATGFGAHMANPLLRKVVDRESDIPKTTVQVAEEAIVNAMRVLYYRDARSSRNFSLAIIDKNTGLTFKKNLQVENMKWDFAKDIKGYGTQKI

Molecule | reduction in binding efficiency against full-length Ump1 [1] | binding result [2]
full-length β7 (^1–266β7) fused to mNeonGreen and 2HA (from UniProt P30657 1-266) (natural protein) | 50% | 
full-length Ump1-6His (natural protein, S. cerevisiae, UniProt P38293 1-148, looked up, source: E. coli; not shown: 6His, C-terminal, kept) MNIVPQDTFKSQVSTDQDKSVLSSAVPSLPDTLRQQEGGAVPLSTQLNDRHPLESTLKNWETTQRQRQMEQYRQIFGIAEPMKRTMEMEIVNRTDFNPLSTNGSIHRDILLNKECSIDWEDVYPGTGLQASTMVGDDVHSKIEKQLGI |  | binds
